T1: Boi1 SH3 (BOI1_YEAST), P38041
T1 chain: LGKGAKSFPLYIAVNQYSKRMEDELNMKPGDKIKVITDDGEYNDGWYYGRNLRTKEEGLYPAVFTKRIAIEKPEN

T2: Boi2 SH3 (BOI2_YEAST), P39969
T2 chain: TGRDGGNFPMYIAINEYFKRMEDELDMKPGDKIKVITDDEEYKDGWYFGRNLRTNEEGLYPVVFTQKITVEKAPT

T3: Myo5 SH3 (MYO5_YEAST), Q04439
T3 chain: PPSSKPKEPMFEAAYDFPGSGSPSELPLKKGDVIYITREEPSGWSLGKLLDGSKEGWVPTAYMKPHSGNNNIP

T4: Rvs167 SH3 (RV167_YEAST), P39743
T4 chain: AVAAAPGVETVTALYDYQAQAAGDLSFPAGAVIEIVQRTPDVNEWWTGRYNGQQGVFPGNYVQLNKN

T5: Yfr024 SH3 (LSB3_YEAST), P43603
T5 chain: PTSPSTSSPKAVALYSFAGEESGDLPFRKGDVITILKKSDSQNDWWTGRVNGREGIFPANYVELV

T6: Yhr016c SH3 (YSC84_YEAST), P32793
T6 chain: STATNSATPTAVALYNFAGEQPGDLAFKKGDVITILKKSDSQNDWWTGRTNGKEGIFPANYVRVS


Target: T1, Boi1 SH3 (BOI1_YEAST), P38041
Assay: SPOT array

Row | Binder | normalised SPOT signal, Boehringer light units (BLU); mean over the file's lines of this peptide
1 | VNIGRRSPYLPLQP [YLR212C 354-367] | 1040
2 | VRSKRLFPVRPMAT [YAL040C 535-548] | 362
3 | VLKIKPLPYKPRGR [YER093C 584-597] | 1590
4 | VNTPRSVPNSPNDG [YGL209W 201-214] | 28.6
5 | VPIDKKSPFYPGLD [YCL055W 187-200] | 152
6 | VVPERVKPAPPVSR [YPR171W 231-244] | 2710
7 | VTSVKLHPNLPIVF [YOR269W 158-171] | 126
8 | VVNEKEVPAEPETQ [YER120W 161-174] | 130
9 | VTDIKLTPTDPLVG [YDL230W 193-206] | 71.3
10 | VQIKRADPHFPHDE [YMR140W 298-311] | 33.5
11 | VLTVKMSPSLPDEI [YCR030C 726-739] | 173
12 | VSQRKKRPISPHLT [YMR118C 67-80] | 216
13 | VYRRKSIPFAPHQI [YFR032C 169-182] | 2560
14 | VSKAKLQPAKPQFT [YAR007C 257-270] | 657
15 | VVAVKIIPKKPWNA [YKL048C 113-126] | 85.7
16 | VWGPKPVPFQPMDV [YAL060W 292-305] | 479

Target: T2, Boi2 SH3 (BOI2_YEAST), P39969
Assay: SPOT array

Row | Binder | normalised SPOT signal, Boehringer light units (BLU); mean over the file's lines of this peptide
17 | VNIGRRSPYLPLQP [YLR212C 354-367] | 19.1
18 | VRSKRLFPVRPMAT [YAL040C 535-548] | 0
19 | VLKIKPLPYKPRGR [YER093C 584-597] | 34.8
20 | VNTPRSVPNSPNDG [YGL209W 201-214] | 28
21 | VPIDKKSPFYPGLD [YCL055W 187-200] | 31.1
22 | VVPERVKPAPPVSR [YPR171W 231-244] | 51.5
23 | VTSVKLHPNLPIVF [YOR269W 158-171] | 10.5
24 | VVNEKEVPAEPETQ [YER120W 161-174] | 34.2
25 | VTDIKLTPTDPLVG [YDL230W 193-206] | 0.1
26 | VQIKRADPHFPHDE [YMR140W 298-311] | 20
27 | VLTVKMSPSLPDEI [YCR030C 726-739] | 28.2
28 | VSQRKKRPISPHLT [YMR118C 67-80] | 21.2
29 | VYRRKSIPFAPHQI [YFR032C 169-182] | 47
30 | VSKAKLQPAKPQFT [YAR007C 257-270] | 21.4
31 | VVAVKIIPKKPWNA [YKL048C 113-126] | 30.9
32 | VWGPKPVPFQPMDV [YAL060W 292-305] | 247

Target: T3, Myo5 SH3 (MYO5_YEAST), Q04439
Assay: SPOT array

Row | Binder | normalised SPOT signal, Boehringer light units (BLU); mean over the file's lines of this peptide
33 | VNIGRRSPYLPLQP [YLR212C 354-367] | 476
34 | VRSKRLFPVRPMAT [YAL040C 535-548] | 504
35 | VLKIKPLPYKPRGR [YER093C 584-597] | 647
36 | VNTPRSVPNSPNDG [YGL209W 201-214] | 65
37 | VPIDKKSPFYPGLD [YCL055W 187-200] | 150
38 | VVPERVKPAPPVSR [YPR171W 231-244] | 150
39 | VTSVKLHPNLPIVF [YOR269W 158-171] | 137
40 | VVNEKEVPAEPETQ [YER120W 161-174] | 100
41 | VTDIKLTPTDPLVG [YDL230W 193-206] | 852
42 | VQIKRADPHFPHDE [YMR140W 298-311] | 132
43 | VLTVKMSPSLPDEI [YCR030C 726-739] | 230
44 | VSQRKKRPISPHLT [YMR118C 67-80] | 814
45 | VYRRKSIPFAPHQI [YFR032C 169-182] | 383
46 | VSKAKLQPAKPQFT [YAR007C 257-270] | 252
47 | VVAVKIIPKKPWNA [YKL048C 113-126] | 115
48 | VWGPKPVPFQPMDV [YAL060W 292-305] | 96.9

Target: T4, Rvs167 SH3 (RV167_YEAST), P39743
Assay: SPOT array

Row | Binder | normalised SPOT signal, Boehringer light units (BLU); mean over the file's lines of this peptide
49 | VNIGRRSPYLPLQP [YLR212C 354-367] | 75.4
50 | VRSKRLFPVRPMAT [YAL040C 535-548] | 309
51 | VLKIKPLPYKPRGR [YER093C 584-597] | 25
52 | VNTPRSVPNSPNDG [YGL209W 201-214] | 59.3
53 | VPIDKKSPFYPGLD [YCL055W 187-200] | 59.1
54 | VVPERVKPAPPVSR [YPR171W 231-244] | 53.2
55 | VTSVKLHPNLPIVF [YOR269W 158-171] | 74
56 | VVNEKEVPAEPETQ [YER120W 161-174] | 12.9
57 | VTDIKLTPTDPLVG [YDL230W 193-206] | 31
58 | VQIKRADPHFPHDE [YMR140W 298-311] | 63.1
59 | VLTVKMSPSLPDEI [YCR030C 726-739] | 4.4
60 | VSQRKKRPISPHLT [YMR118C 67-80] | 31
61 | VYRRKSIPFAPHQI [YFR032C 169-182] | 138
62 | VSKAKLQPAKPQFT [YAR007C 257-270] | 28.5
63 | VVAVKIIPKKPWNA [YKL048C 113-126] | 47.8
64 | VWGPKPVPFQPMDV [YAL060W 292-305] | 112

What follows are binders tested against Sho1 SH3 (SHO1_YEAST), P40073 (assay: SPOT array).
Sho1 SH3 (SHO1_YEAST), P40073, sequence (P40073 295-366): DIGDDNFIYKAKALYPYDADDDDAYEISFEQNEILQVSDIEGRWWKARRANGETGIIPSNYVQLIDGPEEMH

Row | Binder | normalised SPOT signal, Boehringer light units (BLU); mean over the file's lines of this peptide
65 | VNIGRRSPYLPLQP [YLR212C 354-367] | 94
66 | VRSKRLFPVRPMAT [YAL040C 535-548] | 244
67 | VLKIKPLPYKPRGR [YER093C 584-597] | 3410
68 | VNTPRSVPNSPNDG [YGL209W 201-214] | 47.4
69 | VPIDKKSPFYPGLD [YCL055W 187-200] | 20.8
70 | VVPERVKPAPPVSR [YPR171W 231-244] | 43
71 | VTSVKLHPNLPIVF [YOR269W 158-171] | 58.2
72 | VVNEKEVPAEPETQ [YER120W 161-174] | 28.5
73 | VTDIKLTPTDPLVG [YDL230W 193-206] | 47.9
74 | VQIKRADPHFPHDE [YMR140W 298-311] | 30.6
75 | VLTVKMSPSLPDEI [YCR030C 726-739] | 49.5
76 | VSQRKKRPISPHLT [YMR118C 67-80] | 59.1
77 | VYRRKSIPFAPHQI [YFR032C 169-182] | 135
78 | VSKAKLQPAKPQFT [YAR007C 257-270] | 61.2
79 | VVAVKIIPKKPWNA [YKL048C 113-126] | 66.9
80 | VWGPKPVPFQPMDV [YAL060W 292-305] | 24.2

Target: T5, Yfr024 SH3 (LSB3_YEAST), P43603
Assay: SPOT array

Row | Binder | normalised SPOT signal, Boehringer light units (BLU); mean over the file's lines of this peptide
81 | VNIGRRSPYLPLQP [YLR212C 354-367] | 284
82 | VRSKRLFPVRPMAT [YAL040C 535-548] | 2610
83 | VLKIKPLPYKPRGR [YER093C 584-597] | 426
84 | VNTPRSVPNSPNDG [YGL209W 201-214] | 662
85 | VPIDKKSPFYPGLD [YCL055W 187-200] | 32.1
86 | VVPERVKPAPPVSR [YPR171W 231-244] | 479
87 | VTSVKLHPNLPIVF [YOR269W 158-171] | 93.9
88 | VVNEKEVPAEPETQ [YER120W 161-174] | 33
89 | VTDIKLTPTDPLVG [YDL230W 193-206] | 45.9
90 | VQIKRADPHFPHDE [YMR140W 298-311] | 44.1
91 | VLTVKMSPSLPDEI [YCR030C 726-739] | 444
92 | VSQRKKRPISPHLT [YMR118C 67-80] | 299
93 | VYRRKSIPFAPHQI [YFR032C 169-182] | 183
94 | VSKAKLQPAKPQFT [YAR007C 257-270] | 96.3
95 | VVAVKIIPKKPWNA [YKL048C 113-126] | 42
96 | VWGPKPVPFQPMDV [YAL060W 292-305] | 1000

Target: T6, Yhr016c SH3 (YSC84_YEAST), P32793
Assay: SPOT array

Row | Binder | normalised SPOT signal, Boehringer light units (BLU); mean over the file's lines of this peptide
97 | VNIGRRSPYLPLQP [YLR212C 354-367] | 19.5
98 | VRSKRLFPVRPMAT [YAL040C 535-548] | 236
99 | VLKIKPLPYKPRGR [YER093C 584-597] | 27.3
100 | VNTPRSVPNSPNDG [YGL209W 201-214] | 208
101 | VPIDKKSPFYPGLD [YCL055W 187-200] | 20.7
102 | VVPERVKPAPPVSR [YPR171W 231-244] | 88
103 | VTSVKLHPNLPIVF [YOR269W 158-171] | 8.2
104 | VVNEKEVPAEPETQ [YER120W 161-174] | 12.7
105 | VTDIKLTPTDPLVG [YDL230W 193-206] | 10.3
106 | VQIKRADPHFPHDE [YMR140W 298-311] | 41.5
107 | VLTVKMSPSLPDEI [YCR030C 726-739] | 20.6
108 | VSQRKKRPISPHLT [YMR118C 67-80] | 10.3
109 | VYRRKSIPFAPHQI [YFR032C 169-182] | 70.7
110 | VSKAKLQPAKPQFT [YAR007C 257-270] | 50.6
111 | VVAVKIIPKKPWNA [YKL048C 113-126] | 14.7
112 | VWGPKPVPFQPMDV [YAL060W 292-305] | 257
